# Experimental data: patent US20250277767A1 (RAMOT AT TEL AVIV UNIVERSITY, published 2025)
# B1: mAb-EspB-B7 (antibody, V domains shown)
# VH: EVQLLESGGGLVQPGGSLRLSCAASGFTFSHYAMNWVRQAPGKGLEWVSAINSNGDSTYYPDTVKDRFTISRDNSKNTLYLQMNSLRAEDTAVYYCARDRRAGYFDYWGQGTLVTVSS
# VL: DIVLTQPPSASGTPGQRVTISCSGSRDNIGKNYVSWYQQLPGTAPKLLIYRNNQRPSGVPDRFSGSKSGTSASLAISGLRSEDEADYYCSAWDTSLNAYVFGPGTQLTVL
# notes: also called mAb-B7; EspB-specific monoclonal antibody
# Columns and labels:
# [1] = target: T1, EspB of Citrobacter rodentium (Citrobacter rodentium DBS100); test: western blot of culture supernatants, detection with mAb-EspB-B7
# T1 construct: also called C. rodentium EspB
# [2] = target: T2, native EspB of wild-type EPEC; test: as above
# T2 construct: also called EspB in the assembled T3SS; WT EPEC
binder,measurement,setting,value
B1,binding result,[1],binds
same,binding result,[2],binds
